Source: article PMC5521740

Molecular target: T1, His-CRP (cAMP receptor protein) (Klebsiella pneumoniae NTUH-K2044) (UniProt A0ACD7U7W2)
T1 sequence: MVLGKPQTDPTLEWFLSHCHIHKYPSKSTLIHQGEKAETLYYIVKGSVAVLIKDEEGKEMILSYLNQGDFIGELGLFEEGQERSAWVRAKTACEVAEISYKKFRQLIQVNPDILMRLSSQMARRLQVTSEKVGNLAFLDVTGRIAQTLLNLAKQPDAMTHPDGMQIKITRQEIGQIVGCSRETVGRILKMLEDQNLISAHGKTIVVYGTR
Assay: DNase I footprinting
Details: 5x binding buffer ([…], room temperature, 20 min ([…]) or 30 min ([…]

Sequence: ATACCGGCAGCTGCGAGTAATTTTACGTTTTTCATGGTGTTTGTCCTTTTAACTTTTATGGTGGAAAGCATGTTTGCTTTCGATGGACTTATAATAAGTCTGCTAACTATAACGCGCGTGGCAAAAAGTGCGATTTAGATCACATTTTTATGGCGGTTTGATGGCGTAAACATGATCGTTTATCTATTTTTTAATTTAAAAACAATCAATTAATGATTTGCTTCTGAAAGGGGGTATCACAT (double strand) [KP1_4563 promoter footprinting fragment]
- binding: binds
